This is an account of results in publication PMC4917820, “Structural basis for autoinhibition and its relief of MOB1 in the Hippo pathway” (Scientific Reports, 2016).

Assay [1] concerns the target GST-N-terminal truncated MOB1B, N-terminal 10-residue truncated form (mouse) (UniProt Q8BPB0). Put plainly: pull-down; GST-MOB1B and LATS1 proteins (40 μM) mixed 1:1 in 20 mM Tris-HCl (pH 7.5), 0.3 M NaCl, 1 mM DTT, applied to Glutathione Sepharose 4B, washed at 4 °C, eluted with glutathione, SDS-PAGE with Coomassie blue, band intensities.
In assay [2] the target is T1, GST-MOB1B, N-terminal 32-residue truncated form (33-216) (mouse, UniProt Q8BPB0 33-216).
T1 construct: MOB1B, mouse, residues 33-216; also called NΔ32; GST-N-truncated Δ32 MOB1B; source: E. coli; GST fusion, purification of this form not described; not shown: GST, N-terminal, kept
T1 sequence (looked up): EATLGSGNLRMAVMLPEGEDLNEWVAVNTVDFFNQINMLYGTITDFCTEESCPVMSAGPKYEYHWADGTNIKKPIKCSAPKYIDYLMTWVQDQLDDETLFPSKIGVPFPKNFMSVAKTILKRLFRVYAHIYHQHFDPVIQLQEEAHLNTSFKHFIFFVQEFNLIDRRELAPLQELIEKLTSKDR
The description is as above. Particulars: both partners purified.

The target of assay [3] is T2, double-mutant T12D/T35D MOB1B (1-216) (mouse, UniProt Q8BPB0 1-216, T12D | T35D).
T2 construct: MOB1B, mouse, residues 1-216, with T12D and T35D; everywhere else it is T12D/T35D; also called phosphomimic (T12D/T35D) double-mutant; MOB1B(T12/35D); source: E. coli, purified by the same procedure as full-length MOB1B (GST removed); not shown: GST, N-terminal, cleaved
T2 sequence (looked up): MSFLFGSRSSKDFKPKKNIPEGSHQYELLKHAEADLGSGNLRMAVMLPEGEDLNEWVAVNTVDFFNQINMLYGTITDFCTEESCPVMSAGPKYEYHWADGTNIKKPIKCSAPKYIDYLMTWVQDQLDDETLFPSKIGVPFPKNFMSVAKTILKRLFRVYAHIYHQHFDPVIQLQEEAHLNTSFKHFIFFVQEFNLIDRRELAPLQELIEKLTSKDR
Put plainly: crystal structure; 1:1 molar ratio mixture of MOB1B and LATS1 (621-703) crystallised by vapor diffusion, MES pH 6.5, PEG. Particulars: both partners purified.

In assay [4] the target is T3, N-terminal truncated MOB1B (33-216) (mouse, UniProt Q8BPB0 33-216).
T3 construct: MOB1B, mouse, residues 33-216; also called N-terminal 32-residue truncated form; N-truncated MOB1B; source: E. coli, purified (Glutathione Sepharose 4B, HRV 3C digestion, HiTrap Q gradient, Superdex 75pg); not shown: GST, N-terminal, cleaved
T3 sequence (looked up): T1 sequence (looked up)
The assay is described as above. Particulars: both partners purified.

Where a chain is given by its changes, count along the chain named.

On to “NTR domain of LATS1 (limits not told for this experiment) (domain or fragment)”, for which the relative autoinhibition of LATS1 binding (full length 100%, NΔ32 0%) in assay [1] turned out to be 66%.

B1: NTR domain (residues 604-703) of LATS1 (domain or fragment, mouse, UniProt Q8BYR2 604-703, looked up)
chain: KEKKQITTSPITVRKNKKDEERRESRIQSYSPQAFKFFMEQHVENVLKSHQQRLHRKKQLENEMMRVGLSQDAQDQMRKMLCQKESNYIRLKRAKMDKSM
notes: also called wild-type; source: E. coli BL21 (DE3) Star, resolubilized from the insoluble fraction, purified (Ni-NTA, HiTrap SP, Superdex 75pg)
In the case of B1, the binding result in assay [2] is recorded as “binds”.

B2: NTR domain (604-703) of LATS1, R693A (domain or fragment, mouse, UniProt Q8BYR2 604-703, looked up)
chain: B1 chain with R90A
notes: source: E. coli, resolubilized, purified (Ni-NTA, Superdex 75pg)
Regarding B2, the “binding relative to the wild-type” value in assay [2] is less than 20%.

B3: NTR domain (604-703) of LATS1, S689E (domain or fragment, mouse, UniProt Q8BYR2 604-703, looked up)
chain: B1 chain with S86E
notes: also called phosphomimetic substitution; source: E. coli, resolubilized, purified (Ni-NTA, Superdex 75pg)
In the case of B3, the “binding relative to the wild-type” value in assay [2] is less than 10%.

B4: NTR domain (604-703) of LATS1, R696A (domain or fragment, mouse, UniProt Q8BYR2 604-703, looked up)
chain: B1 chain with R93A
notes: as for B2
Consider B4, for which, in assay [2], the “binding relative to the wild-type” value is less than 20%.

B5: NTR domain (604-703) of LATS1, R656A (domain or fragment, mouse, UniProt Q8BYR2 604-703, looked up)
chain: B1 chain with R53A
notes: as for B2
As to B5, in assay [2], the “binding relative to the wild-type” value was less than 20%.

B6: NTR domain (residues 621-703) of LATS1 (domain or fragment, mouse, UniProt Q8BYR2 621-703, looked up)
chain: KDEERRESRIQSYSPQAFKFFMEQHVENVLKSHQQRLHRKKQLENEMMRVGLSQDAQDQMRKMLCQKESNYIRLKRAKMDKSM
notes: also called N-terminal regulation (NTR) domain of LATS1; source: E. coli BL21 (DE3) Star, resolubilized from the insoluble fraction, purified (Ni-NTA, HiTrap SP, Superdex 75pg)
For the molecule B6, the binding result in assay [3], in assay [4] and in assay [2] was “binds” throughout.
